Measured values reported in publication PMC3572029.

Target: HSF1β-EGFP (heat shock factor 1, short β splicing isoform, fused to EGFP) (mouse)
Sequence (P38532 whole entry, the tested form may be a part, canonical isoform): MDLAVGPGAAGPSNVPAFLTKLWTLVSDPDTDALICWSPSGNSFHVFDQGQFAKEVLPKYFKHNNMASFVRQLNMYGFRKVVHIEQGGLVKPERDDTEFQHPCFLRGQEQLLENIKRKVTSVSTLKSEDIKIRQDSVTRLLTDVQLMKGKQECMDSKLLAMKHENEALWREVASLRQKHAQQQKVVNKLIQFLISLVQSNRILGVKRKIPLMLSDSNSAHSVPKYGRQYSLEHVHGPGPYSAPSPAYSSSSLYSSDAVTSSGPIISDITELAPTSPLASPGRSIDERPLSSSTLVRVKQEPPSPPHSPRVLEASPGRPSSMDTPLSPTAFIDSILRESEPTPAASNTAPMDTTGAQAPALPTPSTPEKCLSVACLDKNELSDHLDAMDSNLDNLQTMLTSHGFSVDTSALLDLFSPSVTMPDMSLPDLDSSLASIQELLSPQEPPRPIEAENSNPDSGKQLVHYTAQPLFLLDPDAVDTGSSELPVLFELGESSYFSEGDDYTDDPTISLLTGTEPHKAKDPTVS

HSE-driven firefly luciferase reporter activity of HSF1β in Hsf1.2−/− iMEFs co-transfected with HSF2β, MG132 at 2.5 µM: 3 fold
Substance: HSF2β (heat shock factor 2, short β splicing isoform) (natural protein)
